Measured values: US20150132317A1

Biological target: ALK F1174L, human (human) (UniProt Q9UM73)
Assay: flow cytometry, SY5Y cells stained with isotype control

mean fluorescence intensity (MFI): 90
Substance: isotype control (antibody)
